From paper PMC7298706 (mBio, 2020)

How the values were obtained:
Assay in all cases: ELISA
Conditions in all cases: both partners purified
LukD = molecular target: T1, LukD (Staphylococcus aureus, strain , UniProt O54082)
T1 construct: source: purified recombinant

[1] = molecular target: T2, γ-hemolysin subunit HlgC, recombinant holoprotein (Staphylococcus aureus, strain not told, UniProt Q07227)
T2 construct: source: purified recombinant

HlgB = molecular target: T3, HlgB (Staphylococcus aureus, strain not told, UniProt P0A077)
T3 construct: source: purified recombinant

[2] = molecular target: T4, LukS, S subunit of the Panton-Valentine leukocidin (LukSF), recombinant holoprotein (Staphylococcus aureus, strain not …, UniProt O80066)
T4 construct: source: purified recombinant

LukE = molecular target: T5, LukE (Staphylococcus aureus, strain , UniProt O54081)
T5 construct: source: purified recombinant

HlgA = molecular target: T6, HlgA (Staphylococcus aureus, strain not told, UniProt P0A074)
T6 construct: source: purified recombinant

Row | Binder | binding result (LukD) | binding result [1] | binding result (HlgB) | binding result [2] | binding result (LukE) | binding result (HlgA)
1 | anti-HlgC2 MAb (antibody, V domains shown, also called anti-HIgC2 MAb; source: murine B-cell hybridoma (BALB/c mice immunized with recombinant HlgC)) VH: QVQLKESGPGLVAPSQSLSITCTVSGFSLTNFAVHWVRQPRGKGLEWLGSIWADGRTIYSALMSRLSISKDNSKSQVFLNMNSLQTDDTAMYYCATPFYFGYDGGYAMDHWGQGTSVTVSS VL: DVLMTQTPLSLPVSLGDQASISCRSSQSIVHGSGNTYLEWYLQKPGQSPKLLIYKVSNRLSGVPDRISGSGSGTDFTLKINRVEAEDLGVYYCFQGSHVPYTFGGGTKLEMK | no binding (tested: MAb at 2 μg/ml) | binds | no binding (tested: MAb at 2 μg/ml) | binds | no binding (tested: MAb at 2 μg/ml) | no binding (tested: MAb at 2 μg/ml)
2 | anti-HlgC1 MAb (antibody, V domains shown, also called anti-HIgC1 MAb; source: murine B-cell hybridoma (BALB/c mice immunized with recombinant HlgC)) VH: QVQLLQSGAELVKPGASVQLSCKASGFTFTKHDINWVRQRPEQGLEWIGWIFPGDGNTKYNEKFKGKATLTTDKSSSTAYMQLNGLTSEDSAVYFCAKEIFYWGQGTSVTVSS VL: DIVMTQSPSSLTVTAGEKVTMSCKSSQSLLNSENQRNYLTWYQQKPGQPPKLLISWASTRESGVPDRFTGSGSGTDFTLTISSVQAEDLAVYYCQNDFSYPLTFGAGTKLELR | no binding (tested: MAb at 2 μg/ml) | binds | no binding (tested: MAb at 2 μg/ml) | binds | no binding (tested: MAb at 2 μg/ml) | no binding (tested: MAb at 2 μg/ml)
3 | anti-HlgC4 MAb (antibody, V domains shown, also called anti-HIgC4 MAb; source: murine B-cell hybridoma (BALB/c mice immunized with recombinant HlgC)) VH: QVQLLQSGAELVKPGASVQLSCKASGFTFTKYDINWVRQRPDQGLEWIGWIFPGDGNTKYNDKFKGKVILTTDKSSSTAYMQLTRLTSEDSAVYFCAREIFYWGQGTSVTVSS VL: DIVMTQSPSSLTVTAGEKVTMSCKSSQSLLNSENQRNYLTWYQQKPGQPPKLLISWASTRESGVPDRFTGSGSGTDFTLTISSVQAEDLAVYYCQNDYSYPLTFGAGTKLELR | no binding (tested: MAb at 2 μg/ml) | binds | no binding (tested: MAb at 2 μg/ml) | binds | no binding (tested: MAb at 2 μg/ml) | no binding (tested: MAb at 2 μg/ml)
4 | anti-HlgC3 MAb (antibody, V domains shown, also called anti-HIgC3 MAb; source: murine B-cell hybridoma (BALB/c mice immunized with recombinant HlgC)) VH: QVQLLQSGAELVKPGASVQLSCKASGFTFTKYDINWVRQRPDQGLEWIGWIFPGDGNTKYNDKFKGKVILTTDKSSSTAYMQLSRLTSEDSAVYFCAREIFYWGQGTSVTVSA VL: DIVMTQSPSSLTVTAGEKVTMSCKSSQSLFNSENQRNYLTWYQQKPRQPPKLLISWASTRESEVPDRFTGSGSGTDFTLTISSVQAEDLAVYYCQNDYSYPLTFGAGTKLELR | no binding (tested: MAb at 2 μg/ml) | binds | no binding (tested: MAb at 2 μg/ml) | binds | no binding (tested: MAb at 2 μg/ml) | no binding (tested: MAb at 2 μg/ml)
